The numbers were not newly measured in paper PMC4547496, which cites them from elsewhere.

The target in data set [1] is BAG family nucleotide exchange factor (Homo sapiens) (UniProt Q99933). The data set can be described thus: FCPIA.
Data set [2] has as its target Gαo (Homo sapiens) (UniProt P09471). The data set can be described thus: FCPIA.
Sequence of UniProt P09471 (P09471 2-354): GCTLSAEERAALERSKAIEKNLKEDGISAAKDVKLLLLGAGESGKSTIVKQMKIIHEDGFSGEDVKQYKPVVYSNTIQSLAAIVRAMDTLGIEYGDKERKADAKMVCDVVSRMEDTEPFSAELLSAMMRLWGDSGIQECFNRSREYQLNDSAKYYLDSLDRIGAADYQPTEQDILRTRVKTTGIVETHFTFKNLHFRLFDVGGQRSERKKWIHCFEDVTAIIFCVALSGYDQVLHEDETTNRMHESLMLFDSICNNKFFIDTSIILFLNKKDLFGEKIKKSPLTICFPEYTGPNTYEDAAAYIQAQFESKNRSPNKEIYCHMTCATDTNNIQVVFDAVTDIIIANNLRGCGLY

Sequence of UniProt Q99933 (Q99933 whole entry): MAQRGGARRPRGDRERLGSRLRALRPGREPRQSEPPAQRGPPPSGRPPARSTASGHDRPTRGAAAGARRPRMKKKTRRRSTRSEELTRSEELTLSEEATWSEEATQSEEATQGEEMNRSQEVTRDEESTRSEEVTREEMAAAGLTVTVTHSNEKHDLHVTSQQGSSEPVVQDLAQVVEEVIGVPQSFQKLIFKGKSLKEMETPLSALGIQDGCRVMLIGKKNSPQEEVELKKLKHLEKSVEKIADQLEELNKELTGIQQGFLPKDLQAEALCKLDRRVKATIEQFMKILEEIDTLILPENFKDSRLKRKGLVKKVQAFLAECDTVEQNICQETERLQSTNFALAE

Usually Kd stands for a measure of binding affinity in units of concentration. Hsp70 (from UniProt P0DMV8): the Kd in data set [1] was 1000 nM.

As to RGS4 (from UniProt P49798), the Kd in data set [2] was 4 nM.
